From publication PMC6910952 (Nature Communications, 2019)
Residue numbers refer to the chain shown, from its start.

Assays:
Assay in all cases: pull-down; GST-yNpl4 (0.5 μM, wild type or mutant) on Glutathione Sepharose 4B beads, 1 h at room temperature with 0.5 μM yUfd1, 3 μM Cdc48 (0.5 μM hexamer) and 1 μg K48 chains in 100 μL 50 mM Tris-HCl pH 7.5, 100 mM NaCl, 10% glycerol, 0.1% Triton X-100; chains detected by anti-Ub immunoblot, proteins by Ponceau S
Settings in all cases: both partners purified
[1] = biological target: T1, GST-yNpl4 M574Q (Saccharomyces cerevisiae, UniProt P33755 1-580, M574Q)
T1 construct: Npl4 of Saccharomyces cerevisiae (yNpl4), full length; source: E. coli Rosetta (DE3) (pGEX-6P1), purified (Glutathione Sepharose FF, Resource Q); not shown: GST, N-terminal, kept
T1 sequence (looked up): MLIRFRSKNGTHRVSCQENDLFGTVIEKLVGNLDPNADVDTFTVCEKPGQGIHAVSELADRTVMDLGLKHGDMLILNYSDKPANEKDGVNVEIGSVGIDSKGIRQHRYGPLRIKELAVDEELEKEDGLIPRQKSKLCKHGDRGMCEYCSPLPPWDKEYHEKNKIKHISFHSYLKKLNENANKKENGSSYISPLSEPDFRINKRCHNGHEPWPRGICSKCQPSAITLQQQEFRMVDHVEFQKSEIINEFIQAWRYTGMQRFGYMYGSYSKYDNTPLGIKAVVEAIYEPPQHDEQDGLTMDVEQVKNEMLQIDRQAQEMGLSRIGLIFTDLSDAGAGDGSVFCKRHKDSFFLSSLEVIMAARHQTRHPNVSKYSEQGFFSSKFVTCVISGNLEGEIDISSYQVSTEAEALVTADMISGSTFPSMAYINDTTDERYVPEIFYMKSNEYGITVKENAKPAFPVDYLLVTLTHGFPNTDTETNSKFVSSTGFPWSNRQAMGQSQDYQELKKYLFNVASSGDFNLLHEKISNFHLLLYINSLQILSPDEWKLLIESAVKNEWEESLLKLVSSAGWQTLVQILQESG

[2] = biological target: T2, GST-yNpl4 S498R (Saccharomyces cerevisiae, UniProt P33755 1-580, S498R)
T2 construct: Npl4 of Saccharomyces cerevisiae (yNpl4), full length; source: E. coli Rosetta (DE3) (pGEX-6P1), purified (Glutathione Sepharose FF, Resource Q); not shown: GST, N-terminal, kept
T2 sequence (looked up): T1 sequence (looked up) with S498R, Q574M

[3] = biological target: T3, GST-yNpl4 T571A (Saccharomyces cerevisiae, UniProt P33755 1-580, T571A)
T3 construct: Npl4 of Saccharomyces cerevisiae (yNpl4), full length; source: E. coli Rosetta (DE3) (pGEX-6P1), purified (Glutathione Sepharose FF, Resource Q); not shown: GST, N-terminal, kept
T3 sequence (looked up): T1 sequence (looked up) with T571A, Q574M

Measured: binding result

B1: yUfd1 (full length, untagged) (natural protein, Saccharomyces cerevisiae, UniProt P53044 1-361, looked up)
chain: MFSGFSSFGGGNGFVNMPQTFEEFFRCYPIAMMNDRIRKDDANFGGKIFLPPSALSKLSMLNIRYPMLFKLTANETGRVTHGGVLEFIAEEGRVYLPQWMMETLGIQPGSLLQISSTDVPLGQFVKLEPQSVDFLDISDPKAVLENVLRNFSTLTVDDVIEISYNGKTFKIKILEVKPESSSKSICVIETDLVTDFAPPVGYVEPDYKALKAQQDKEKKNSFGKGQVLDPSVLGQGSMSTRIDYAGIANSSRNKLSKFVGQGQNISGKAPKAEPKQDIKDMKITFDGEPAKLDLPEGQLFFGFPMVLPKEDEESAAGSKSSEQNFQGQGISLRKSNKRKTKSDHDSSKSKAPKSPEVIEID
notes: Ufd1 of Saccharomyces cerevisiae (yUfd1), full length; codon-optimized synthetic cDNA; removal of GST by HRV3C is surmised; also called untagged Ufd1; source: E. coli Rosetta (DE3) (pGEX-6P1), purified
binds: all assays above
